# Patent US20180021429A1, “ANTICANCER AGENTS OR ANTIMETASTATIC AGENTS USING FSTL1 AND COMBINATION DRUG THEREOF” (PHARMA FOODS INTERNATIONAL CO., LTD., priority 2015, published 2018)
# Where a chain is given by its changes, count along the chain named. Entries after “also recorded” stand apart in the source; their conditions may differ.
# T1: FSTL1 (Homo sapiens, UniProt Q12841)
# T1 sequence (Q12841 21-308): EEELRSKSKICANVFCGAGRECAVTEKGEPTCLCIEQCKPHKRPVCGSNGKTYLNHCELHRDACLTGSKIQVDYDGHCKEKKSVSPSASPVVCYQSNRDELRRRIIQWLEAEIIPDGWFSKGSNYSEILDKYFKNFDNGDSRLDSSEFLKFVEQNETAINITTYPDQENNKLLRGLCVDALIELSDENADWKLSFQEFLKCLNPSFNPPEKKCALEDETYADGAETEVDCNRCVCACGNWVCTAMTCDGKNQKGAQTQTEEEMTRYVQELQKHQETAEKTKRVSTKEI
# B1: #6-55: chicken-mouse chimeric anti-FSTL1 antibody clone; variable regions SEQ ID NO: 783 (light), 785 (heavy) (antibody, V domains shown)
# VH: AVTLDESGGGLQTPGGALSLVCKGSGFTFTSVTMQWVRQAPGKGLEWVASVCSGSSTYYAPAVKGRATISRDNGQSTVRLQLSNLRPEDTGTYYCAKIAGRARWSCTSAAYNIDAWGHGTEVIVSS
# VL: ASTQPSSVSAIPGETVKITCSGGGNNYGWYQQRSPGSAPVTVIYYNDNRPSNIPSRFSGSTSGSTSTLTITGVQADDEAIYYCGSWDSNTDSGIFGAGTTLTVL
# modifications: mouse constant regions
# B2: #7-34: chicken-mouse chimeric anti-FSTL1 antibody clone; variable regions SEQ ID NO: 787 (light), 789 (heavy) (antibody, V domains shown)
# VH: AVTLDESGGGLQTPGGGLSLVCKASGFTFSSVTMQWVRQAPGKGLEWVASICSGSSTYYGPAVKGRATISRDNGQNTVRLQLNNLRAEDTATYYCAKIVGRGRWSCTSAAYNIDAWGHGTEVIVSS
# VL: B1 VL with I11N, R33K, D47N, D76E, I80V, W86Y, D87E, S88G, N89S
# modifications: mouse constant regions
# B3: #5-43: chicken-mouse chimeric anti-FSTL1 antibody clone; variable regions SEQ ID NO: 779 (light), 781 (heavy) (antibody, V domains shown)
# VH: AVTLDESGGGLQTPGGGLSLVCKGSGFTFSSFNMFWVRQAPGKGLEWVAGIGKDGGTGYGAAVDGRATISKDSGQSTLRLQLNNLRAEDTGTYYCAKAAGGCSYDWCGAYTGDIDTWGHGTEVIVSS
# VL: ASTQPSSVSANPGEAVKITCSGGSGSYYGWYQQKSPGSAPVTVIYNNNQRPSDIPSRFSGSKSGSTATLTITGVQAEDEAVYFCGGYDSSTGHGGIFGAGTTLTVL
# modifications: mouse constant regions
# B4: #5-3: chicken-mouse chimeric anti-FSTL1 antibody clone; variable regions SEQ ID NO: 767 (light), 769 (heavy) (antibody, V domains shown)
# VH: B3 VH with G17A, T28S, G56V, T57P, G58K, S73N, L78M, Y94F, A109I, T111A
# VL: ASTQPSSVSANPGETVKITCSGGSGYYYGWYQQKSPGSVPVTVIYNNNNRPSDIPSRFSGSKSGSTGTLTITGVRAEDEAVYYCGGYDNSGTGIFGAGTTLTVL
# modifications: mouse constant regions
# B5: #5-8: chicken-mouse chimeric anti-FSTL1 antibody clone; variable regions SEQ ID NO: 771 (light), 773 (heavy) (antibody, V domains shown)
# VH: B3 VH with G56V, T57P, G58K, A61T, S73N, L78M, Y94F, A109I
# VL: B3 VL
# modifications: mouse constant regions
# Experiments:
# mouse bone marrow cells = assay: Inhibition of induction of mesenchymal stem cells (MSC) by FSTL1 in mouse bone marrow cells (Examples 4, 6, 8, 12); assay type: cell-based; conditions: for inhibitory activity against the expansion of ALCAM-positive cells and PDGFRA-positive cells by FSTL1: Example 4: 50 ng/mL FSTL1, 10 μg/mL antibody, vs control anti-DNP antibody
# Protocol: It is known that when bone marrow cells are stimulated with FSTL1, mesenchymal stem cells (MSCs) having pluripotency or self-proliferative capacity grow (Cancer Research 73: 6185, 2013). Thus, 2×10^7 cells/well of bone marrow cells collected from the thigh bone of a C57BL/6 mouse were suspended in 3 mL/well of RPMI1640 (GIBCO/Thermo Fisher Scientific Inc., Cat. No. C11875500BT) medium containing 2% fetal bovine serum, supplemented with 50 ng/mL (final concentration) of FSTL1 (R&D Systems, Inc. Cat#1694-FN-050) and 10 μg/mL of the anti-FSTL1 antibody (#5-2, […], #5-8, #5-10, #5-43, #6-55, or #7-34) or its isotype mouse IgG (anti-DNP antibody) as a control antibody “Control”, and cultured under stimulation (6-well plate). 11 days thereafter, the number of cells was counted while the cells were stained with a PE-labeled anti-ALCAM antibody (eBioscience, Cat. No. 12-1661-82) and a PE-labeled anti-PDGFRA antibody (eBioscience, Cat#12-1401-81) in order to examine the expression of MSC markers, and the contents of ALCAM-positive cells and PDGFR-positive cells were analyzed by flow cytometry using FACScan (Becton, Dickinson and Company, Code. BECTON-DICKINSON-FACSCAN) to calculate the number of each positive cell per culture.
# (§1) Mouse bone marrow cells prepared in the same way as in Example 4 were supplemented with 50 ng/mL (final concentration) of FSTL1 and 10 μg/mL of the anti-FSTL1 antibody (#5-2, #5-3, #5-8, #5-10, #5-43, #6-55, or #7-34) or a control antibody anti-DNP antibody and cultured under stimulation. 11 days thereafter, the number of cells was counted while the cells were stained with a PE-Cy5-labeled anti-CD45 antibody (BD Pharmingen/Becton, Dickinson and Company, Cat. No. 555484), and the content of CD45− negative cells reported to generally contain MSCs at a high rate was analyzed by flow cytometry using FACScan to calculate the percentage and number of MSCs per culture (FIG. 99A).
# as §1, with “20” for “50”, “#8-1, #8-4, #8-7, and #8-8)” for “or #7-34)”, “8” for “11”, “antibody,” for “antibody (BD Pharmingen/Becton, Dickinson and Company, Cat. No. 555484),”, “cells” for “cells reported to generally contain MSCs at a high rate”, “100A).” for “99A).”
# (§2) Mouse bone marrow cells prepared in the same way as in Example 4 were supplemented with 20 ng/mL (final concentration) of FSTL1 and 10 μg/mL of the anti-FSTL1 antibody (#5-2, #5-8, #6-55, 47-34, #8-1, #8-4, #8-7, or #8-8) or a control antibody anti-DNP antibody and cultured under stimulation. 8 days thereafter, the number of cells was counted while the cells were stained with a PE-Cy5-labeled anti-CD45 antibody, and the content of CD45− negative cells was analyzed by flow cytometry using FACScan to calculate the percentage and number of MSCs per culture (FIG. 101).
# FSTL1 = target: T1, FSTL1; assay: Inhibition of MSC induction by FSTL1 in mouse bone marrow cells, CD45-negative cells (Examples 6, 8, 12); assay type: cell-based; set-up: purchased R&D Systems, Inc. 1694-FN-050; conditions: antibody 10 μg/mL
# Protocol: as §1, with “45-43,” for “#5-43,”, “67A).” for “99A).”
# as §2, with “(#5-2, #5-3,” for “(#5-2,”, “#5-8, #5-10, #5-43,” for “#5-8,”, “#6-55,” for “#6-55, 47-34,”, “#8-7, and” for “#8-7, or”, “(FIG. 68A).” for “(FIG. 101).”
# as §2, with “#7-34,” for “47-34,”, “69).” for “101).”
# [1] = Example 8: 20 ng/mL FSTL1, 10 μg/mL antibody, 8 days, FIG. 100A
# [2] = Example 12: 20 ng/mL FSTL1, 10 μg/mL antibody, 8 days, FIG. 101
# [3] = Example 8, FSTL1 20 ng/mL, 8 days
# [4] = Example 12, FSTL1 20 ng/mL, 8 days
# [5] = Example 6: 50 ng/mL FSTL1, 10 μg/mL antibody, 11 days, FIG. 99A
# [6] = Example 6, FSTL1 50 ng/mL, 11 days
Molecule,inhibitory activity against the expansion of ALCAM-positive cells and PDGFRA-positive cells by FSTL1 (mouse bone marrow cells; 11 days),inhibitory activity against the expansion of CD45-negative cells by FSTL1 (mouse bone marrow cells; [1]),inhibitory activity against the expansion of CD45-negative cells by FSTL1 (mouse bone marrow cells; [2]),inhibitory activity against the expansion of CD45-negative cells by FSTL1 (FSTL1; [3]),inhibitory activity against the expansion of CD45-negative cells by FSTL1 (FSTL1; [4]),inhibitory activity against the expansion of CD45-negative cells by FSTL1 (mouse bone marrow cells; [5]),inhibitory activity against the expansion of CD45-negative cells by FSTL1 (FSTL1; [6])
B1,slightly strong tendency of inhibitory activity,exhibited inhibitory activity,"higher inhibitory activity was confirmed in the order of #7-34, #5-2, #6-55, and #8-7",Inhibitory activity was confirmed; also recorded: exhibited inhibitory activity,"higher inhibitory activity was confirmed in the order of #7-34, #5-2, #6-55, and #8-7",–,–
B2,slightly strong tendency of inhibitory activity,–,"higher inhibitory activity was confirmed in the order of #7-34, #5-2, #6-55, and #8-7",–,"stronger inhibitory activity was confirmed in the order of clone #7-34, #5-2, 46-55, and #8-7; also recorded: higher inhibitory activity was confirmed in the order of #7-34, #5-2, #6-55, and #8-7; also recorded: stronger inhibitory activity was confirmed in the order of clone #7-34, #5-2, 96-55, and #8-7",higher inhibitory activity and substantially completely inhibited the action of FSTL1,higher inhibitory activity and substantially completely inhibited the action of FSTL1
B3,slightly strong tendency of inhibitory activity,exhibited inhibitory activity,–,Inhibitory activity was confirmed; also recorded: exhibited inhibitory activity,–,higher inhibitory activity and substantially completely inhibited the action of FSTL1,higher inhibitory activity and substantially completely inhibited the action of FSTL1
B4,–,–,–,–,–,higher inhibitory activity and substantially completely inhibited the action of FSTL1,higher inhibitory activity and substantially completely inhibited the action of FSTL1
B5,–,exhibited inhibitory activity,–,Inhibitory activity was confirmed; also recorded: exhibited inhibitory activity,–,–,higher inhibitory activity and substantially completely inhibited the action of FSTL1
